Data reported in doi:10.1101/189324.
Like-named read-outs stand apart in the source and are kept apart here.

Columns and labels:
[1] = biological target: Insulin (purified, used in vitro)
[2] = biological target: Insulin (purified, used in vitro); assay: BLI
[3] = biological target: Insulin (purified, used in vitro); assay: BLI; remark: listed apart in the source

ThT fluorescence, heat-induced fibrillation of insulin with apo-SCGN (1:2 ratio) [1]: 50% | Kd [2]: 1840 nM | Kd [3]: 1450 nM
B1: Recombinant His-tagged secretagogin (SCGN) (natural protein)
chain: MDNARRKTPARLDAACFWQIWQRFDKEEKGYIRETELDAFFDHLLAKSGTEDTLMEENVQKVKEQLMTSHNVSKEGRILMKELASMFLSEDENFLLFFRLETPLDNSVEFMQIWRKYDADSSGFISAAELCNFLRDLFLHHKKNISEAELEEYTSTMMKIFDKNKDGRLDLNDLARILALQENFLLQFKMDASSTEERKRDFEKIFAHYDVSKTGALEGPEVDGFVKDMMELVQPSISGVDLDKFREILLRHCDVNKDGKIQKSELALCLGLKINP
